Results as given in publication PMC8892158.

Target: Staphylococcus aureus FakA (S. aureus)

Substance “Staphylococcus aureus FakB1 (wild type), palmitate-loaded (from UniProt X5EH37 1-288) (natural protein)” has an apparent KM of FakB1 in the FA kinase assay with 0.2 μM FakA of 0.13 µM.
With “Staphylococcus aureus FakB1(A121I), palmitate-loaded (from UniProt X5EH37 1-288) (natural protein)” the apparent KM of FakB1(A121I) in the FA kinase assay with 0.2 μM FakA was 0.1 µM.
Work on “Staphylococcus aureus FakB1(A158L), myristate-loaded (from UniProt X5EH37 1-288) (natural protein)” yielded an apparent KM of FakB1(A158L) in the FA kinase assay with 0.2 μM FakA of 0.13 µM.
